Results as given in patent US20220073608A1.
Blank lines part the entries; values can stand above or below the binder they belong to.

Tests used:
[1] = target: T1, biotinylated hSEMA4D ECD-His (human) (UniProt Q92854); assay: BLI (Octet-Red), scFv in bacterial periplasmic extract; off-rate ranking
T1 sequence (chain, biotinylated with Biotin-X-X-NHS at a molar ratio of 8,1; sites not stated): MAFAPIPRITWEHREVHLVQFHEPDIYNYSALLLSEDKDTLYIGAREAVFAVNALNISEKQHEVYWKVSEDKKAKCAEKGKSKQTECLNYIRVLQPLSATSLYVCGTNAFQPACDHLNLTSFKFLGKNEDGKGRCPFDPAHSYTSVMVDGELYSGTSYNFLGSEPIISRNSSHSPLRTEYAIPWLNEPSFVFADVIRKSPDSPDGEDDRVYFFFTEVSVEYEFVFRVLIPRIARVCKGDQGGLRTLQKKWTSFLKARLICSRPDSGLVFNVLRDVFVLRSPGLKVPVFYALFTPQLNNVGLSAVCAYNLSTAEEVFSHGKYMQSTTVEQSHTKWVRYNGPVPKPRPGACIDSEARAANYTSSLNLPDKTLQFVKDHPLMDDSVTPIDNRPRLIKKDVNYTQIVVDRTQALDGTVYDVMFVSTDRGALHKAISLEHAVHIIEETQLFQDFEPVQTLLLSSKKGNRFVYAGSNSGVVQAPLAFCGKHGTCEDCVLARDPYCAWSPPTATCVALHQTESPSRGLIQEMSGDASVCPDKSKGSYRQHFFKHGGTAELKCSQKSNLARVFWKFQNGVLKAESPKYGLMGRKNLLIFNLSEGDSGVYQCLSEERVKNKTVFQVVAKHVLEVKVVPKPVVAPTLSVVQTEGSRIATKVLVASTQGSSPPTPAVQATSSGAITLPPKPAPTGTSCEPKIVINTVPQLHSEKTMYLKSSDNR

[2] = target: T2, human SEMA4D, full length, on CHO-K1 cells (CHO-K1 hSEMA4D) (human) (UniProt Q92854); assay: competitive FACS, CHO-K1 hSEMA4D cells; unlabelled Ab 6 ug/mL first, competitor Alexa 488-VX15 0.67 ug/mL
T2 sequence (looked up): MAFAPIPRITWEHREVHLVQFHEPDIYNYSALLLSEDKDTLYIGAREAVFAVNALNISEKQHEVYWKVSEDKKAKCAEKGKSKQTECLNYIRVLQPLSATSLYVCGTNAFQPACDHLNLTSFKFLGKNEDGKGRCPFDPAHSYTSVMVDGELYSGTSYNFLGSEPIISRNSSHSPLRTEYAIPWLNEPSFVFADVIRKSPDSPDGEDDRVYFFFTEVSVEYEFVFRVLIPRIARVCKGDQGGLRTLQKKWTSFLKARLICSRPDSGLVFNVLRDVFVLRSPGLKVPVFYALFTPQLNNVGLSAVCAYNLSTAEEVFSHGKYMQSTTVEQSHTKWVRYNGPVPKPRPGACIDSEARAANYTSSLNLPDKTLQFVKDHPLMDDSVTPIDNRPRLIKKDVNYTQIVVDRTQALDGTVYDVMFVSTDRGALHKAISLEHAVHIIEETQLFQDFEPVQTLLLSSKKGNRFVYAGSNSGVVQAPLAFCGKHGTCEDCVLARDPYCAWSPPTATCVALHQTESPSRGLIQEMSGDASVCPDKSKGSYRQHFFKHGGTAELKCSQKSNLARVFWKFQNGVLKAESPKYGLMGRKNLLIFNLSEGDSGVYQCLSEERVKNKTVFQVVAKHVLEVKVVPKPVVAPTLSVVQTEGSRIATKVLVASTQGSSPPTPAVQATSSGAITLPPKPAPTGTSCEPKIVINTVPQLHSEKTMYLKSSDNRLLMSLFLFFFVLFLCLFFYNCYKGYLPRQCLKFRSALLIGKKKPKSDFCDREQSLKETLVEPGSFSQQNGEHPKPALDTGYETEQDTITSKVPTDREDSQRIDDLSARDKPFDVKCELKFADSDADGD

[3] = target: T2, human SEMA4D, full length, on CHO-K1 cells (CHO-K1 hSEMA4D) (human); assay: competitive FACS, CHO-K1 hSEMA4D cells; unlabelled Ab 6 ug/mL first, competitor Alexa 488-2D5 0.67 ug/mL
[4] = target: T2, human SEMA4D, full length, on CHO-K1 cells (CHO-K1 hSEMA4D) (human); assay: competitive FACS, CHO-K1 hSEMA4D cells; unlabelled Ab 6 ug/mL first, competitor Alexa 488-5D8 0.67 ug/mL

fold reduction of off-rate against the wild type [1]: 45 times
B1: 2D5-b1-3D9 scFv (periplasmic extract) (scFv, part only; not given: linker, domain order, tags, V domains shown, not shown: another chain or arm of the molecule; large carriers; small tags and cut ends)
VH: QVTLRESGPALVKPTQTLTLTCTFSGFSLTTTGVAVTWIRQPPGKALEWLALIDWDDDKYYSTSLKTRLTISKDTSKNQVVLTMTNMDPVDTATYYCARIASGDSGGYFADWGQGTLVTVSS
VL: SYELTQPPSVSVSPGQTASITCSGDKLDDKYVYWYQQKPGQSPVLVIYMDNKRKSGIPERFSGSNSGNTATLTISGTQAMDEADYYCQAWESSSDQYVFGTGTKVTVL

inhibition rate (%) [2]: 97% | inhibition rate (%) [3]: 96% | inhibition rate (%) [4]: 98%
B2: VX15 (antibody, INN chains, looked up, V domains shown)
VH: QVQLVQSGAEVKKPGSSVKVSCKASGYSFSDYYMHWVRQAPGQGLEWMGQINPTTGGASYNQKFKGKATITVDKSTSTAYMELSSLRSEDTAVYYCARYYYGRHFDVWGQGTTVTVSS
VL: DIVMTQSPDSLAVSLGERATINCKASQSVDYDGDSYMNWYQQKPGQPPKLLIYAASNLESGVPDRFSGSGSGTDFTLTISSLQAEDVAVYYCQQSNEDPYTFGQGTKLEIK
